Experimental data from PMC8257531.

Legend:
[1] = fluorescence imaging, SK-RC-39 cells, ER/Golgi markers; conditions: glycan lost; control: wild-type CNNM3-mCherry
[2] = co-localisation with ARL15-mClover3, SK-RC-39 cells; conditions: glycan lost; control: wild-type CNNM3-mCherry

B1: CNNM3: N73A (protein)
parent chain: MAAAVAAAGRLGWLFAALCLGNAAGEAAPGPRVLGFCLEEDGAAGAGWVRGGAARDTPDATFLLRLFGPGFANSSWSWVAPEGAGCREEAASPAGEWRALLRLRLRAEAVRPHSALLAVRVEPGGGAAEEAAPPWALGLGAAGLLALAALARGLQLSALALAPAEVQVLRESGSEAERAAARRLEPARRWAGCALGALLLLASLAQAALAVLLYRAAGQRAVPAVLGSAGLVFLVGEVVPAAVSGRWTLALAPRALGLSRLAVLLTLPVALPVGQLLELAARPGRLRERVLELARGGGDPYSDLSKGVLRCRTVEDVLTPLEDCFMLDASTVLDFGVLASIMQSGHTRIPVYEEERSNIVDMLYLKDLAFVDPEDCTPLSTITRFYNHPLHFVFNDTKLDAVLEEFKRGKSHLAIVQKVNNEGEGDPFYEVLGLVTLEDVIEEIIRSEILDESEDYRDTVVKRKPASLMAPLKRKEEFSLFKVSDDEYKVTISPQLLLATQRFLSREVDVFSPLRISEKVLLHLLKHPSVNQEVRFDESNRLATHHYLYQRSQPVDYFILILQGRVEVEIGKEGLKFENGAFTYYGVSALTVPSSVHQSPVSSLQPIRHDLQPDPGDGTHSSAYCPDYTVRALSDLQLIKVTRLQYLNALLATRAQNLPQSPENTDLQVIPGSQTRLLGEKTTTAAGSSHSRPGVPVEGSPGRNPGV
[1]
  localisation_or_trafficking: abolishes
[2]
  localisation_or_trafficking: decreases
